Measured values as given in the nanobody polyreactivity screen of Harvey et al. (2022).

Test: yeast display, Sf9 membrane polyspecificity reagent, FACS + sequencing; frameworks hold sequencing errors
Summary of the method: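 A synthetic nanobody library was expressed on Saccharomyces cerevisiae BJ5465 by galactose induction for 36–48 hours. The library was stained for 1 hour at 4 °C with 10% biotinylated, detergent-solubilized Sf9 membrane reagent and enriched with streptavidin microbeads before FACS. Low and high (top ~1%) gates were set on anti-HA fluorescence for expression and streptavidin fluorescence for reagent binding, and each polyreactivity label reflects the gate of origin.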

Sequence	polyreactivity (PSR sort gate)
QLQLVESGGGLVQAGGSLRLSCAASGSIFGGYAMGWYRQAPGKERELVAAITGTDTTNYADSVKGRFTISRDNAKNTVYLQMNSLKPEDTAVFYCNADYQPVAAVYNYDYWGQGTQVTVSS	low polyreactivity
QVQLVESGGGLVQAGGSLRLSCAASGSIFYAYAMGWYRQAPGKEREFVAVISYSGGSTYYADSVKGRFTISRDNAKNTVYLQMYSLKPEDTAVYYCAARYRRPYSYYYWGQGTQVTVSS	high polyreactivity
QVQLVESGGGLVQAGGSLRLSCAASGSTFSRYAMGWYRPAPGKERELVAAISYSGDSTYYADSVKGRFTISRDNAKNTVYLQMNSLKPEDTAVYYCNVYSHYRGYYWGQGTQVTVSS	high polyreactivity
QEQLQESAGGLVQACGSQRLSCAASGSISEGQDMGSYRRAPGKEREFVAGIAPGATTYYADSVKGRFTISRDNAKKTVYRQMNSLKAEDTAVYYCAARSVTETDHDYWGQGTQVTVSS	low polyreactivity
QVQLVESGGGLVQAGGSLRLSCAASGRTITAYTMVWYRQAPVKEREMVASISSGVTYADSVKGRFTISRDNAKNTVYLQMNRLKPEDTAVYYCAARLWYVQGYVPYVHHRFDYWGQGTQVTVSS	low polyreactivity
QVQLVESGGGLVQAGGSLRLSCAASGSIFAGNAMGWYCHAPGKERELVAAIRYGGTSTYYADSVKGRFTISRDNAKNTVYLQMNSLIPEDTAVYYCAATDWWGYYYWGQGTQVTVSS	high polyreactivity
QVQLVESGGGLVQAGCSRRLSWAASGSTFPDYVMGWDRQAPGKERELVAAISSIGGSTYYADSVKGRFTISRDNAKNTVYLQMNSLKPEDSAVYYCAAENSYFYPFDYWGQGTQVTVSS	low polyreactivity
QDQLVESGGGLVQAGGSLRLSCAASGSSFFSNAMGWYRPAPGKERELVAAITSTGGSTYYADSVKGRFTISRDHAKNTVYLQMNSLKPEDTAVYYCAAASRRGYYYWGQGTQVTVSS	high polyreactivity
QVQLVESGGGLVQAGGSLRLSCAASGFTFSYYAMGWYRQAPGKERELVARISFSGTRTYYADSVKGRFTISRDNAKNTVYLQMNSLKQEDTAVYYCAARLGYVGITARYDYWGQGTQVTVSS	high polyreactivity
QVQLVESGGGLVQAGGSLRLSCPAYGYTILPNAMGWYRQAPGKEREFVAAISYSGGRTYYADSVKGRFTISRDNAKNTVYLQMNSLKPEDTAVYYCATELYGYRYDYWGQGTQVTVSS	low polyreactivity
QVQLVESGGGLVQAGGSLRLSCAASGFTFKGNAMGWYRQAPGTERELVATITQSAGSTYYADSVKGRFTISRDNAKNTVYLEMNSLKPEDTAVYYCNADPITLYYYSWYNYWGQGTQVTVSS	low polyreactivity
QVQLLESGGGLVQAGGSLRISCASSGRTFSSNTMGRYRQAPGKERELVAAISSTDSTYYADSVKGRYTISRDNAKNTVYLQMNSLKPEDTAVYYCAKRPTRRYGYWGQGTQVTVSS	high polyreactivity
QVQLVESGGGLVQAGGSLRLSCAASGSTFRWYAMGWYRQAPGKERELVAAITAGGRTYYADSVKGRFTISRDNAKNTVYLQMTSLKPEDTAVYYCNALGKPTWYATTYDYWGQGTQVTVSS	high polyreactivity
QVQLVESGGGLVQAGGSLRLSCAASGFICFDYDMGWYRQAPGKERELVAAINWTGGSTDYADSVKGRFTISRDNAKNTVYLQMNSLKPEDTAVYYCAAEGQDGRFYWGQGTQVTVSS	low polyreactivity
QVQLVESGGGLVQAGGSLRLSCAASGITFDHSAMGWYRQAPGKEREFVAAIDDIGGDTYYADSVKGRFTISRDNAKNTVYLQMNSLKPEDTAVDYCAADYGYYSRFYYWGQGTQVTVSS	low polyreactivity
QVQLVESGGGLVQAGGSLRLSCAASGFTFRAYAMGWYRQAPGKERELVAAITSGTRTYYADSVKGRFTISRDNAKNTVYLQMNSLKPEDTAVYDCAVGFILPSTFTRMYYWGQGTQVTVSS	high polyreactivity
QVQLVESGGGLVQAGGSLRLSCAASGIIFLENAMGWYRQAPGKERELVAGISSGGNTNYADSVKGRFTISRDNAKNTVYLQMNSLKPEDTALYYCNKFGYHREYDYWGQVTQVTVSS	low polyreactivity
QVQLVESGGGLVQAGGSLRLSCAASGRTFGQYAMGWYRQAPGKERQLVAAISTRGGSTYYADSVKGRFTISRDNAKNTVYLQMNSLKPEDTAVYYCAARPGWFAGYEYWGQGTQVTVSS	low polyreactivity
QVQLVESGGGLVQAGGSLRLSCDASGITLRTYSIGWYRQAPGKERELVAAISKSGDRTYYADSVKGRFTISRDNAKNTVYLQMNSLKPEDNAVYYCAKATNAQYLYDYWGQGTHVTVSS	low polyreactivity
QVQLVESGGGLVQAGGSLRLSCAASGSTFYSNVMGWYRQAPGKEREFVAGISGSGGSTYYADSVKGRFTISRDNAKNTVYLQMNSLKPEDTAVYYCAKYRYSRYFRYDYWGQCTQVTVSS	high polyreactivity
QVQLVESGGGLVQAGGSLRLSCAASGRTFVLYTMGWYRQAPGKERELVAAISGSGGRSYYADSVKGRFTISRDHAKNSVYLQMNSLKPEDTAVYYCAAYGQGLPLYGYWGQGTQVTVSS	high polyreactivity
QVQLVESGGGLVQAGGSLRLSCAASGSIFSRNTMGWYRQAPGKERELVATITSGSNTNYADSVKGRFTISRDNAKNTVYLQMNSLKPEDTAVYYWGQGTQVTVSS	low polyreactivity

Sequence	polyreactivity (PSR sort gate)
QVQLVESGGGLVQAGGSLRLSCAASGFTFERYTMGWYRQAPGKERELVATISRRSGRTSYADSVKGRFTISRDNAKNTVYLQMNSLKPEDTAVYYCAVDDAYPDRYDYWGQGTQVTVSS	high polyreactivity
QVQLVESRGGLVQAGGSLRLSCAASGITFILYAMGCYRQAAWKERELVASITSGGSTDYADSVKERFTISGDNAKNTVYLQMNSLKPEDTAVYYCNAAARGSSFDYWGQGTQVTVSS	low polyreactivity
QVQLVESGGGLVQAGGSLRLSCAASGRIFNHYAMGWYRQAPGKERELVATISATGGSTYYADSVKGRFTISRDNAKNTVYLQMNSLNPEDTAVYYCNAGHLWYWRTRSARRVGMVYWGQGTQVTVSS	low polyreactivity
QVQLVESGGGLVQAVGSLRLSCAASGSIFRRNVMGWYRPAPGKERELVATLTVGGSTYYADSVKGRFTISRDNAKNTVYLQMNSLIPEDTAVYYCAAYSPYLRSWYDYWGQGTQGTVSS	high polyreactivity
QVQLVESGGGIVPAGGSLRLSCAASGLTFRFNAMGWYRQAPGKERELVADITVSGGRTYYADSVKGRFTISRDNAKNTVYLQMNSLKPEDTAVYYCARRRTVGVTEPFSRGYDYWGQGTQVTVSS	low polyreactivity
QVQLVESGGGLVQAGGSLRLSCAASGRTFFCYAMGWYRQAPGKERELVAAITYRGGGTYYADSVKGRFTISRDNAKNTVNLQMNSLKPEDTAVYYCAAEYWVGVYLYDYWGQGTQVTVSS	high polyreactivity
QVQLVESGGGLVQAGGSLRLTCAASGIIFQRNTMGWYRQAPGKERELVAAITSRGGRTYYADSVKGRFTISRDNAKNTVYLQMNSLKPEDTAVYYCAALLYFYSRPYGYWGQGTQVTVSS	high polyreactivity
QVQLVESGGGLVQAGGSLRLSCAASGFNFIYYAMGWYRQAPGKERELVAAISRRGGSTYYADSVKGRFTISRDNAKNTVYLQMNSLKPEDTAVYYCAADYTSAILRSDYWGQGTQVTVSS	high polyreactivity
QVQLVESGGGLVQAGGSLRLSCAASGFTITYNAMGWYRKAPGKEREFVAAITNNGSTYYADSVKGRFTISRDNAKNTVYLQMNSLKPEDTAVYYCAVDPGYYDEYKYWGQGTQVTVSS	low polyreactivity
QVQLVESGGGLVQAGGSLRLSCAASGRTSGYYAMGWYRQAPGKERELVATISGNVGRTYYADSVKGRFTISRDNAKNTVYLQMNSLKPEDTAVYYCAARTYGPYDYWGQGTQVTVSS	low polyreactivity
QVQLVESGGGLVQAGGSLRLSCAASGFTSPIYAMGWYRQAPGKERELVAVIDWSSGITYYADSVKGRFTISRDNAKNTVYLQMNSLKPEDTAVYYCAAEYRGRGWRYGYDYWGQGTQVTVSS	high polyreactivity
QVQLVESGAGLVQAGGSLRLSCAASGSIFSYYVMGWYRQAPGKERELVAAISYSGGRTYYADSVKGSFTISRDNAKYTVYLQMNSLKPEDTAVYFCAASRRVGEVSYYYWGQGTQVTVSS	high polyreactivity
QVQLVESGGGLVQAGGSLRLSCAASGSTFGDYAMGWYRQAPGKERELVAAISRSAGSTYYADSVKGRFTISRDNAKNTVYLQMNSLKPEDTAVYYCAAEYQYHWAYIYYYWGQGTQVTVSS	high polyreactivity
QVQLVESGGGVVQAGGSLRLSCAATGSTFYSYAMGWYRQAPGKEREFVASITRSGVRTYYADSVKGRFTISRDNAKNTVYLQMNSLKPDDTAFYYCAAERYYFPRSYRYGYWGQGTQVTVSS	low polyreactivity
QVQLVESGGGLVQAGGSLRLSCAASGSTLVDYAMGWYRQAPGKERELVATISFRGGSTYYADSVKGRCTISRDNAKNTVYLQMNSLKPEDTAVYYCAAEYGPSLYYYYGHAAYAYGYWGQGTQVTVSS	low polyreactivity
KVQLVESGGGLVQAGGSLRLSCAASGYIVSYYDMGWYRQAPGKERELVAAITAGVAGTYYADSVKGRLTISRDNAKNSVYLQMNSLTPEDTAVFYCAADRYITTVVRMYYSGQGTQVTVSS	low polyreactivity
QVQLVESGGGLVQAGGSLRLSCAASGSIFGTNAMGGYRQAPGKETELVADISGSGGTTYYADSVKGRFTISRDNAKNTVDLQMNSLKPEDTAVYYCAAKGRAGYGYTAYANDYGGQGTQVTVSS	low polyreactivity
QVQLVESGGGLVQAGGSLRLSCAASGRIFRTNAMGWYRQAPGKDRELVAAISRSGGSTYYADSVKGRFTISRDNAKNTVYLQMNSLKPEDTAVYYCATRVGKILTTKYGYWGQGTQVTVSS	high polyreactivity
QVQLVESGGGLVQAGGSLRLSCAASGNIFSRYAMGWYRQAPGKERELVAAISSSGGTTYYADSVKGRFTISRDNAKNTVYLHMNSLKPEDTAVYYCNARRRQIYSEFGYWGQGTQVTVSS	high polyreactivity
QVQLVESGGGLVQAGGSLRLSCAASGSTFGPNAMGWYRQAPGKERELVATITYSGGSTYYADSVKGRFTISRDNAKNTVYLQMNSLKPEDTAVYYCAAVYRYSRFTYGYWGQGTQVTVSS	high polyreactivity
QVQFVESGGGLVQAGGSLRLSCAASGSTFQGYAMGWYRQAPGKERELVAAISRSGGRTYYADSVKGRFTISRDNAKNTVYLQMNSLKPEDTAVYYCAKYYWAPTGAHGGYGYWGQGTQVTVSS	low polyreactivity
